This is an account of results in patent publication US11059842B2, “Monosaccharide amine and 3-nitro-2-phenyl-2H-chromene based inhibitors of glucose kinases” (UNIVERSITY OF SOUTH CAROLINA, priority 2019, dated 2021).

Substrate in series [1]: O=C[C@H](O)[C@@H](O)[C@H](O)[C@H](O)CO
In words: HsHxKIV Michaelis-Menten kinetics. The class given is biochemical, Homo sapiens. The following applies: other: substrate; triplicate runs. How it is done:
(§1) D-Glucose was also tested as a control with alternative substrates. The protein expression work for TcGlcK and HsHxKIV were each made possible through the E. coli strain BL21(DE3) system. Purification of each enzyme was performed through cobalt-NTA chromatography followed by size-exclusion chromatography; assessment of purity was performed by SDS-PAGE. In enzymatic assays, a time-optimum (TOPT) was determined to be 120 seconds for TcGlcK and 600 seconds for HsHxKIV; all assays were run at room temperature. A general reaction scheme included a first reaction in which the monosaccharide, ATP, and Mg^2+ react with the enzyme, e.g., TcGlcK, forming a hexose-phosphate and ADP. In a second reaction, hexose-phosphate with the assistance of glucose-6-phosphate dehydrogenase (G6PDH) and NADP^+ was converted to the lactone form of the hexose-phosphate and NADPH. Fluorescence of NADPH was monitored using a fluorescence microplate reader with […] wavelengths of 340 nm and 485 nm, respectively.
(§2) FIG. 4 and FIG. 5 present typical Michaelis-Menten enzyme kinetic plots for D-glucose. […] Michaelis-Menten constant (KM) values, which were used as the set final assay concentrations of substrates D-glucose and ATP for the primary screens, were determined for both TcGlcK and HsHxKIV in triplicate runs. […]

Substrate in series [2]: O=C[C@H](O)[C@@H](O)[C@H](O)[C@H](O)CO
In words: TcGlcK Michaelis-Menten kinetics and substrate range. Particulars: other: substrate; triplicate runs. The class given is biochemical, Trypanosoma cruzi. Here is the method: as §1, with “In a second reaction, hexose-phosphate with the assistance of glucose-6-phosphate dehydrogenase (G6PDH) and NADP^+ was converted to the lactone form of the hexose-phosphate and NADPH.” left out
as §2
All phosphorylated hexoses were shown getting converted into their corresponding products by G6PDH, in abundant quantities through a 30-second time frame. […]

B1: HsHxKIV (Homo sapiens) (protein)
chain: MLDDRARMEAAKKEKVEQILAEFQLQEEDLKKVMRRMQKEMDRGLRLETHEEASVKMLPTYVRSTPEGSEVGDFLSLDLGGTNFRVMLVKVGEGEEGQWSVKTKHQMYSIPEDAMTGTAEMLFDYISECISDFLDKHQMKHKKLPLGFTFSFPVRHEDIDKGILLNWTKGFKASGAEGNNVVGLLRDAIKRRGDFEMDVVAMVNDTVATMISCYYEDHQCEVGMIVGTGCNACYMEEMQNVELVEGDEGRMCVNTEWGAFGDSGELDEFLLEYDRLVDESSANPGQQLYEKLIGGKYMGELVRLVLLRLVDENLLFHGEASEQLRTRGAFETRFVSQVESDTGDRKQIYNILSTLGLRPSTTDCDIVRRACESVSTRAAHMCSAGLAGVINRMRESRSEDVMRITVGVDGSVYKLHPSFKERFHASVRRLTPSCEITFIESEEGSGRGAALVSAVACKKACMLGQ
Turning to B1, in series [1], the Km (as a rule, the concentration of substrate that gives half-maximal velocity) was determined as 43 mM.

B2: TcGlcK (Trypanosoma cruzi strain CL Brener) (protein)
chain: MNIKELSLHELCEELKTPAWNVPLTFVGDVGGTSARMGFVREGKNDSVHACVTRYSMKRKDITELIEFFNEIIELMPASVIKRVKAGVINVPGPVTGGAVGGPFNNLKGIARLSDYPKALFPPGRSAILNDLEAGGFGVLAVSDAHVFSEYFGVMWEGTQWRTCEQEPAGSVIGRGRCLVLAPGTGLGSSLIYYNPMNQQHIVVPLELGSQTIPMRKDIDYIQTLHAELKLLPNYENMVSGAGLEFHYRQVVRGSRPPCSAGEIAKLASEGDANACKAMKKYHEYLMRVGSEASMALLPLTIVLVGDNIVNNAFFYRNPQNLKEMHREALNHEMERFGFQSRVTYLRQKKLLNLNLMGCYRCGLDLSVGKKQKAQL
On to B2, for which the Km in series [2] was determined as 0.40 mM.
